Data from patent US20240069022A1 (ASAHI KASEI, published 2024).

Key:
[1] = target: T1, recombinant ribosomal protein L7/L12 of Bacillus subtilis, tag fusion protein (Bacillus subtilis, UniProt P02394 1-123); assay: ELISA, recombinant L7/L12 (10 ng/mL) coated
T1 sequence: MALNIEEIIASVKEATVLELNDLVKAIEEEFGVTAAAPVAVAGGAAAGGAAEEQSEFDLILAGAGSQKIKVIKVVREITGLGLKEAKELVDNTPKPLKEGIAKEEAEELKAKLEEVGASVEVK

[2] = target: T2, recombinant ribosomal protein L7/L12 of Pseudomonas aeruginosa, tag fusion protein (Pseudomonas aeruginosa, UniProt Q9HWC8 1-122); assay: ELISA, recombinant L7/L12 (10 ng/mL) coated
T2 sequence: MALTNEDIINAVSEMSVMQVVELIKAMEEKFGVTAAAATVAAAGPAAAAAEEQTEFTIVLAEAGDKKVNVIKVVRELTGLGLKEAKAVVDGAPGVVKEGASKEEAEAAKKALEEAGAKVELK

[3] = target: T3, ribosome protein L7/L12 of Bacillus subtilis, native, in bacterial lysate (Bacillus subtilis, UniProt P02394 2-123); assay: ELISA, bacterial lysate coated
T3 construct: also called BS; B. subtilis lysate
T3 sequence: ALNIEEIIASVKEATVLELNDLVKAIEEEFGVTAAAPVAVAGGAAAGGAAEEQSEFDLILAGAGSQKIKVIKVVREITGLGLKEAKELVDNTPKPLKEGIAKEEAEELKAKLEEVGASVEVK

[4] = target: T4, ribosome protein L7/L12 of Pseudomonas aeruginosa, native, in bacterial lysate (Pseudomonas aeruginosa, UniProt Q9HWC8 1-122); assay: ELISA, bacterial lysate coated
T4 construct: also called PA; P. aeruginosa lysate
T4 sequence: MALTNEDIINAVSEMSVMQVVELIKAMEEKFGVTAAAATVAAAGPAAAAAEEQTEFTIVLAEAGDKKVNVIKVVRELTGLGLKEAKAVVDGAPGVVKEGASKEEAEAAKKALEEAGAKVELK

[5] = target: recombinant ribosomal protein L7/L12 of Escherichia coli, tag fusion protein (Escherichia coli, UniProt P0A7K2 1-121); assay: ELISA, recombinant L7/L12 coated, antibody 10 ug/mL; +: A450 >=0.3
Sequence of recombinant ribosomal protein L7/L12 of Escherichia coli, tag fusion protein (P0A7K2 whole entry, the tested form may be a part): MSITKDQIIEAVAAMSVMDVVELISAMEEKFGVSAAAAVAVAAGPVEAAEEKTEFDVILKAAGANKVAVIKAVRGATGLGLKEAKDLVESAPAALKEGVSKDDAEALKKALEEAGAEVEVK

[6] = target: T3, ribosome protein L7/L12 of Bacillus …; assay: lateral-flow sandwich kit (a) on lysate; capture Specific Antibody A, gold-labelled detection Generic Antibody A

B1: Specific Antibody B (EC149C3) (antibody, V domains shown)
VH: QVQLQQSGAELVKPGASVKLSCKASDYTFTNFYIYWVKQRPGQGLEWIGEINPSNGYTTFNVKFKSKATLTVDKSSSTAYMQLSSLTSEDSAVYYCTRNYGGSRCAYWGQGTLVTVSA
VL: DVLMTQTPLSLPVSLGDQASISCRSSQSIVHSNGNTYLEWYLQKPGQSPKLLIYKVSNRFSGVPDRFSGSGSGTDFTLKISRVEAEDLGVYYCFQGSHVPWTFGGGTKLEIK
B1: no binding (tested: Absorbance <0.3 at 10 ug/mL antibody) [1]; no binding (tested: Absorbance <0.3 at 10 ug/mL antibody) [2]; no binding (tested: Absorbance <0.3 at 10 ug/mL antibody) [3]. B1: no binding (tested: Absorbance <0.3 at 10 ug/mL antibody) [4].

B2: Generic Antibody B (CP141A190.1) (antibody, V domains shown)
VH: QVQLQQPGAELVKPGASVKLSCKTSGYNFTSNWIHWVKQRPGQGLEWIGEINPSNGRANYNEKFKNKATLTVDKSSSTAFMHLSSLTSEDSAVYFCSRGDFDEGFTYWGQGTLVTVSA
VL: QIVLTQSPAIMSASLGERVTMTCTASSNVNSDYLHWYQQKPGSSPRLWIYTTSNLASGVPTRFSGNGSGTSYSLTISSMEAEDAATYYCHQYHRSPRTFGGGTKLEIK
B2: binds [5].

B3: Specific Antibody C (EC162A3) (antibody, V domains shown)
VH: QVQLQQSGTELAKPGASVQMSCKASGYTFTSYWMHWVKQRPGQGLEWIGYINPNTGYTEYNQQFKDKATLTADKSSSTAYMQLSSLTSEDSAVYYCANYFAWFGYWGQGTLVTVSA
VL: DIKMTQSPSSMYASLGERVTVTCKASQDIYSYLNWFQQKPGKSPKTLIYRANRLVDGVPSRFSGSGSGQEYSLTISSLEHEDMGIYYCLQHDQHPYTFGSGTKLEIK
B3: binds [5]; no binding (tested: Absorbance <0.3 at 10 ug/mL antibody) [1]; no binding (tested: Absorbance <0.3 at 10 ug/mL antibody) [2]. B3: no binding (tested: Absorbance <0.3 at 10 ug/mL antibody) [3]; no binding (tested: Absorbance <0.3 at 10 ug/mL antibody) [4].

B4: Specific Antibody A (EC50C1) (antibody, V domains shown)
VH: QVQLQQSGAELAKPGASVKMSCKASGYTFTSYWMNWVKQRPGQGLEWIGYINPNTGYTEYDQKFKDKATLTADKSSSTAYMQLSSLTSEDSAVYYCARYWAYFEYWGQGTTLTVSS
VL: DIKMTQSPSSMYASLGERVTITCKASQDINSYLSWFQQKPGKSPKTLIYRANRLVDGVPSRFSGSGSGQDYSLTISSLEYEDMGIYYCLQYDEFRTFGGGTKLEIK
B4: no binding (tested: Visually negative) [6]; binds [5]; no binding (tested: Absorbance <0.3 at 10 ug/mL antibody) [1]. B4: no binding (tested: Absorbance <0.3 at 10 ug/mL antibody) [2]; no binding (tested: Absorbance <0.3 at 10 ug/mL antibody) [4].

B5: Generic Antibody A (PA51B2) (antibody, V domains shown)
VH: QVQLQQPGSVLVRPGASVKLSCKPSGYTFTGSWMHWTKQRPGQGLEWIGEIHPYSGNTNYNEKFRVKATLTVDTSSSTTYVDLSSLTSDDSAVYYCASGDFDAGFTYWGQGTLVTVSA
VL: DIVLTQSPASLAVSLGRRATISCKASQSVDYDGDSYMNWYQQKPGQPPKLLIYVASNLESGIPARFSGSGSGTDFTLNIHPVEEEDAATYYCQQTNEDPFTFGAGTKLELK
B5: binds [5].
